Data as given in patent publication US20140087995A1 (published 2014).
Numbered stars: 1 amine (or outer) side, 2 acyl side, 3 side chain; on linkers, the order of the positions; unused ones are H or OH. Bridge positions count the residues as written; N and C are the ends. Side chains are listed from the residue outwards. Ends that are not written are not given here. * marks the point of attachment. C20 diacid = O=C(O)CCCCCCCCCCCCCCCCCCC(=O)*; γGlu = O=C(O)[C@H](CCC(=O)[*:2])N[*:1]; AEEA = NCCOCCOCC(=O)O

T1: human amylin receptor (amylin 3(a) receptor: human calcitonin receptor with RAMP-3) (human, UniProt P30988 25-474; O60896 24-148)
T1 construct: whole, on cells; also called hAmylin-R; hAmylinR
T1 sequence (looked up) 1: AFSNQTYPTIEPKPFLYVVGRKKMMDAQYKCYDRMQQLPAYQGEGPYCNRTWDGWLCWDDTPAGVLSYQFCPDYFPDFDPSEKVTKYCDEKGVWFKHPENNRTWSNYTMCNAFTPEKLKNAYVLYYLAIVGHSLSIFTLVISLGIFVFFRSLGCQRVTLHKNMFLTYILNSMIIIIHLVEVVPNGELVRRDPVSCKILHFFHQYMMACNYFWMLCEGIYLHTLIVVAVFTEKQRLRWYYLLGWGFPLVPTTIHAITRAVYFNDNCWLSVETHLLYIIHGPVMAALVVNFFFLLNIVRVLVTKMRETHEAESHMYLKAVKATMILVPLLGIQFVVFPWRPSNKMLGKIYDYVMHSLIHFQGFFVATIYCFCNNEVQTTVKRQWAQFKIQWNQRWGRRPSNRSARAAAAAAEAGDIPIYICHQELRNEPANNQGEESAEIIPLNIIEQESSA
T1 sequence (looked up) 2: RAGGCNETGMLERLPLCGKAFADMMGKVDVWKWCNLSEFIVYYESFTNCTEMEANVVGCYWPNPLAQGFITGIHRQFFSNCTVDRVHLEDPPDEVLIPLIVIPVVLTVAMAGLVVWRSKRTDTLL

B1: N^ε1-[(4S)-4-carboxy-4-[[(4S)-4-carboxy-4-(19-carboxynonadecanoylamino)butanoyl]amino]butanoyl]-[His14,Arg17,Pro21,Pro27]-h-amylin (peptide)
peptide: K([γGlu-γGlu-C20 diacid])CNTATCATQRLAHFLRHSSPNFGAIPSSTNVGSNTY-NH2
modifications: disulfide 2-7; N-terminus assumed
SMILES: CC[C@H](C)[C@H](NC(=O)[C@H](C)NC(=O)CNC(=O)[C@H](Cc1ccccc1)NC(=O)[C@H](CC(N)=O)NC(=O)[C@@H]1CCCN1C(=O)[C@H](CO)NC(=O)[C@H](CO)NC(=O)[C@H](Cc1c[nH]cn1)NC(=O)[C@H](CCCNC(=N)N)NC(=O)[C@H](CC(C)C)NC(=O)[C@H](Cc1ccccc1)NC(=O)[C@H](Cc1c[nH]cn1)NC(=O)[C@H](C)NC(=O)[C@H](CC(C)C)NC(=O)[C@H](CCCNC(=N)N)NC(=O)[C@H](CCC(N)=O)NC(=O)[C@@H](NC(=O)[C@H](C)NC(=O)[C@@H]1CSSC[C@H](NC(=O)[C@@H](N)CCCCNC(=O)CC[C@H](NC(=O)CC[C@H](NC(=O)CCCCCCCCCCCCCCCCCCC(=O)O)C(=O)O)C(=O)O)C(=O)N[C@@H](CC(N)=O)C(=O)N[C@@H]([C@@H](C)O)C(=O)N[C@@H](C)C(=O)N[C@@H]([C@@H](C)O)C(=O)N1)[C@@H](C)O)C(=O)N1CCC[C@H]1C(=O)N[C@@H](CO)C(=O)N[C@@H](CO)C(=O)N[C@H](C(=O)N[C@@H](CC(N)=O)C(=O)N[C@H](C(=O)NCC(=O)N[C@@H](CO)C(=O)N[C@@H](CC(N)=O)C(=O)N[C@H](C(=O)N[C@@H](Cc1ccc(O)cc1)C(N)=O)[C@@H](C)O)C(C)C)[C@@H](C)O
notes: also called 92; compound 92
B2: N{Alpha-1}-[(4S)-4-carboxy-4-(19-carboxynonadecanoylamino)butanoyl]-[Glu14,Arg17,Pro21,Pro27,Lys34]-h-amylin (peptide)
peptide: {C20 diacid-γGlu}-KCNTATCATQRLAEFLRHSSPNFGAIPSSTNVGKNTY-NH2
modifications: disulfide 2-7
SMILES: CC[C@H](C)[C@H](NC(=O)[C@H](C)NC(=O)CNC(=O)[C@H](Cc1ccccc1)NC(=O)[C@H](CC(N)=O)NC(=O)[C@@H]1CCCN1C(=O)[C@H](CO)NC(=O)[C@H](CO)NC(=O)[C@H](Cc1c[nH]cn1)NC(=O)[C@H](CCCNC(=N)N)NC(=O)[C@H](CC(C)C)NC(=O)[C@H](Cc1ccccc1)NC(=O)[C@H](CCC(=O)O)NC(=O)[C@H](C)NC(=O)[C@H](CC(C)C)NC(=O)[C@H](CCCNC(=N)N)NC(=O)[C@H](CCC(N)=O)NC(=O)[C@@H](NC(=O)[C@H](C)NC(=O)[C@@H]1CSSC[C@H](NC(=O)[C@H](CCCCN)NC(=O)CC[C@H](NC(=O)CCCCCCCCCCCCCCCCCCC(=O)O)C(=O)O)C(=O)N[C@@H](CC(N)=O)C(=O)N[C@@H]([C@@H](C)O)C(=O)N[C@@H](C)C(=O)N[C@@H]([C@@H](C)O)C(=O)N1)[C@@H](C)O)C(=O)N1CCC[C@H]1C(=O)N[C@@H](CO)C(=O)N[C@@H](CO)C(=O)N[C@H](C(=O)N[C@@H](CC(N)=O)C(=O)N[C@H](C(=O)NCC(=O)N[C@@H](CCCCN)C(=O)N[C@@H](CC(N)=O)C(=O)N[C@H](C(=O)N[C@@H](Cc1ccc(O)cc1)C(N)=O)[C@@H](C)O)C(C)C)[C@@H](C)O
notes: also called 36; compound 36
B3: N^ε1N^ε1-[(4S)-4-carboxy-4-(19-carboxynonadecanoylamino)butanoyl]-[His14,Arg17,Pro21,Pro27,Pro34]-h-amylin (peptide)
peptide: K([γGlu-C20 diacid])CNTATCATQRLAHFLRHSSPNFGAIPSSTNVGPNTY-NH2
modifications: disulfide 2-7; N-terminus assumed
SMILES: CC[C@H](C)[C@H](NC(=O)[C@H](C)NC(=O)CNC(=O)[C@H](Cc1ccccc1)NC(=O)[C@H](CC(N)=O)NC(=O)[C@@H]1CCCN1C(=O)[C@H](CO)NC(=O)[C@H](CO)NC(=O)[C@H](Cc1c[nH]cn1)NC(=O)[C@H](CCCNC(=N)N)NC(=O)[C@H](CC(C)C)NC(=O)[C@H](Cc1ccccc1)NC(=O)[C@H](Cc1c[nH]cn1)NC(=O)[C@H](C)NC(=O)[C@H](CC(C)C)NC(=O)[C@H](CCCNC(=N)N)NC(=O)[C@H](CCC(N)=O)NC(=O)[C@@H](NC(=O)[C@H](C)NC(=O)[C@@H]1CSSC[C@H](NC(=O)[C@@H](N)CCCCNC(=O)CC[C@H](NC(=O)CCCCCCCCCCCCCCCCCCC(=O)O)C(=O)O)C(=O)N[C@@H](CC(N)=O)C(=O)N[C@@H]([C@@H](C)O)C(=O)N[C@@H](C)C(=O)N[C@@H]([C@@H](C)O)C(=O)N1)[C@@H](C)O)C(=O)N1CCC[C@H]1C(=O)N[C@@H](CO)C(=O)N[C@@H](CO)C(=O)N[C@H](C(=O)N[C@@H](CC(N)=O)C(=O)N[C@H](C(=O)NCC(=O)N1CCC[C@H]1C(=O)N[C@@H](CC(N)=O)C(=O)N[C@H](C(=O)N[C@@H](Cc1ccc(O)cc1)C(N)=O)[C@@H](C)O)C(C)C)[C@@H](C)O
notes: also called 67; compound 67
B4: N^ε21-[(4S)-4-carboxy-4-[[(4S)-4-carboxy-4-(19-carboxynonadecanoylamino)butanoyl]amino]butanoyl]-[Asp14,Arg17,Lys21,Pro27,Asp35]-h-amylin (peptide)
peptide: KCNTATCATQRLADFLRHSSK([γGlu-γGlu-C20 diacid])NFGAIPSSTNVGSDTY-NH2
modifications: disulfide 2-7; N-terminus assumed
SMILES: CC[C@H](C)[C@H](NC(=O)[C@H](C)NC(=O)CNC(=O)[C@H](Cc1ccccc1)NC(=O)[C@H](CC(N)=O)NC(=O)[C@H](CCCCNC(=O)CC[C@H](NC(=O)CC[C@H](NC(=O)CCCCCCCCCCCCCCCCCCC(=O)O)C(=O)O)C(=O)O)NC(=O)[C@H](CO)NC(=O)[C@H](CO)NC(=O)[C@H](Cc1c[nH]cn1)NC(=O)[C@H](CCCNC(=N)N)NC(=O)[C@H](CC(C)C)NC(=O)[C@H](Cc1ccccc1)NC(=O)[C@H](CC(=O)O)NC(=O)[C@H](C)NC(=O)[C@H](CC(C)C)NC(=O)[C@H](CCCNC(=N)N)NC(=O)[C@H](CCC(N)=O)NC(=O)[C@@H](NC(=O)[C@H](C)NC(=O)[C@@H]1CSSC[C@H](NC(=O)[C@@H](N)CCCCN)C(=O)N[C@@H](CC(N)=O)C(=O)N[C@@H]([C@@H](C)O)C(=O)N[C@@H](C)C(=O)N[C@@H]([C@@H](C)O)C(=O)N1)[C@@H](C)O)C(=O)N1CCC[C@H]1C(=O)N[C@@H](CO)C(=O)N[C@@H](CO)C(=O)N[C@H](C(=O)N[C@@H](CC(N)=O)C(=O)N[C@H](C(=O)NCC(=O)N[C@@H](CO)C(=O)N[C@@H](CC(=O)O)C(=O)N[C@H](C(=O)N[C@@H](Cc1ccc(O)cc1)C(N)=O)[C@@H](C)O)C(C)C)[C@@H](C)O
notes: also called 59; compound 59
B5: N^ε1-[(4S)--4-carboxy-4-(19-carboxynonadecanoylamino)butanoyl]-[Glu14,Arg17,Pro21,Pro27,Pro37]-h-amylin (peptide)
peptide: K([γGlu-C20 diacid])CNTATCATQRLAEFLRHSSPNFGAIPSSTNVGSNTP-NH2
modifications: disulfide 2-7; N-terminus assumed
SMILES: CC[C@H](C)[C@H](NC(=O)[C@H](C)NC(=O)CNC(=O)[C@H](Cc1ccccc1)NC(=O)[C@H](CC(N)=O)NC(=O)[C@@H]1CCCN1C(=O)[C@H](CO)NC(=O)[C@H](CO)NC(=O)[C@H](Cc1c[nH]cn1)NC(=O)[C@H](CCCNC(=N)N)NC(=O)[C@H](CC(C)C)NC(=O)[C@H](Cc1ccccc1)NC(=O)[C@H](CCC(=O)O)NC(=O)[C@H](C)NC(=O)[C@H](CC(C)C)NC(=O)[C@H](CCCNC(=N)N)NC(=O)[C@H](CCC(N)=O)NC(=O)[C@@H](NC(=O)[C@H](C)NC(=O)[C@@H]1CSSC[C@H](NC(=O)[C@@H](N)CCCCNC(=O)CC[C@H](NC(=O)CCCCCCCCCCCCCCCCCCC(=O)O)C(=O)O)C(=O)N[C@@H](CC(N)=O)C(=O)N[C@@H]([C@@H](C)O)C(=O)N[C@@H](C)C(=O)N[C@@H]([C@@H](C)O)C(=O)N1)[C@@H](C)O)C(=O)N1CCC[C@H]1C(=O)N[C@@H](CO)C(=O)N[C@@H](CO)C(=O)N[C@H](C(=O)N[C@@H](CC(N)=O)C(=O)N[C@H](C(=O)NCC(=O)N[C@@H](CO)C(=O)N[C@@H](CC(N)=O)C(=O)N[C@H](C(=O)N1CCC[C@H]1C(N)=O)[C@@H](C)O)C(C)C)[C@@H](C)O
notes: also called 12; compound 12
B6: N^ε1-[2-[2-[2-[[(4S)-4-carboxy-4-(19-carboxynonadecanoylamino)butanoyl]amino]ethoxy]ethoxy]acetyl]-[Arg17,Pro21,Pro27]-h-amylin (peptide)
peptide: K([AEEA-γGlu-C20 diacid])CNTATCATQRLANFLRHSSPNFGAIPSSTNVGSNTY-NH2
modifications: disulfide 2-7; N-terminus assumed
SMILES: CC[C@H](C)[C@H](NC(=O)[C@H](C)NC(=O)CNC(=O)[C@H](Cc1ccccc1)NC(=O)[C@H](CC(N)=O)NC(=O)[C@@H]1CCCN1C(=O)[C@H](CO)NC(=O)[C@H](CO)NC(=O)[C@H](Cc1c[nH]cn1)NC(=O)[C@H](CCCNC(=N)N)NC(=O)[C@H](CC(C)C)NC(=O)[C@H](Cc1ccccc1)NC(=O)[C@H](CC(N)=O)NC(=O)[C@H](C)NC(=O)[C@H](CC(C)C)NC(=O)[C@H](CCCNC(=N)N)NC(=O)[C@H](CCC(N)=O)NC(=O)[C@@H](NC(=O)[C@H](C)NC(=O)[C@@H]1CSSC[C@H](NC(=O)[C@@H](N)CCCCNC(=O)COCCOCCNC(=O)CC[C@H](NC(=O)CCCCCCCCCCCCCCCCCCC(=O)O)C(=O)O)C(=O)N[C@@H](CC(N)=O)C(=O)N[C@@H]([C@@H](C)O)C(=O)N[C@@H](C)C(=O)N[C@@H]([C@@H](C)O)C(=O)N1)[C@@H](C)O)C(=O)N1CCC[C@H]1C(=O)N[C@@H](CO)C(=O)N[C@@H](CO)C(=O)N[C@H](C(=O)N[C@@H](CC(N)=O)C(=O)N[C@H](C(=O)NCC(=O)N[C@@H](CO)C(=O)N[C@@H](CC(N)=O)C(=O)N[C@H](C(=O)N[C@@H](Cc1ccc(O)cc1)C(N)=O)[C@@H](C)O)C(C)C)[C@@H](C)O
notes: also called 41; compound 41

Target: T1, human amylin receptor (amylin 3(a) …)
Assay: SPA displacement of 125I-rat amylin, hAmylin 3(a) receptor membranes
How it was run: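 SPA beads with BHK Amylin 3(a)/CRE-luc cell membranes (35 ng/μL final) in 50 mM Hepes pH 7.4, 1 mM CaCl2, 5 mM MgCl₂, 0.1% OA, 0.02% Tween20.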

| IC50 [nM] | Binder |
| --- | --- |
| 0.179 | B1 |
| 0.403 | B2 |
| 0.09 | B3 |
| 1.19 | B4 |
| 0.142 | B5 |
| 0.427 | B6 |
